# Tested on: CC[C@]1(O)C[C@@H]2CN(CCc3c([nH]c4ccccc34)[C@@](C(=O)OC)(c3cc4c(cc3OC)N(C)[C@H]3[C@@](O)(C(=O)OC)[C@H](OC(C)=O)[C@]5(CC)C=CCN6CC[C@]43[C@@H]65)C2)C1
# Assay: TP_TRANSPORTER: transepithelial transport (basal to apical) in Caco-2 cells
# Assay type: functional, cell-based
substance,measurement,value
ATP-dependent translocase ABCB1 (Homo sapiens),Km,19 µM

# From ChEMBL document CHEMBL2074196, “Drug absorption limited by P-glycoprotein-mediated secretory drug transport in human intestinal epithelial Caco-2 cell layers” (Pharm Res, 1993)
